This note sets out measurements from patent publication US20030191054A1.

By Kd is commonly meant a measure of binding affinity in units of concentration. As usually defined, the koff is a measure of how fast the partners let go of each other. A word on the kon: it is a measure of how fast the partners come together.

Assay [1] has as its target purified recombinant BAG-1 (beginning at residue 116 of SEQ ID NO:2) (human). As to the kind of experiment: surface plasmon resonance (BIAcore), KD=Kd/Ka. For orientation: Surface plasmon resonance follows binding to a sensor surface in real time, without labels.
Assay [2] concerns the target purified recombinant BAG-2 (SEQ ID NO:4) (human). As to the kind of experiment: surface plasmon resonance (BIAcore), KD=Kd/Ka.
The target of assay [3] is purified recombinant BAG-3 (SEQ ID NO:6) (human). As to the kind of experiment: surface plasmon resonance (BIAcore), KD=Kd/Ka.
Assay [4] concerns the target purified recombinant BAG-1 (beginning at residue 116 of SEQ ID NO:2) (human). As to the kind of experiment: surface plasmon resonance (BIAcore), BAG protein immobilized.
Assay [5] addresses purified recombinant BAG-2 (SEQ ID NO:4) (human). Described as above.
Assay [6] concerns the target purified recombinant BAG-3 (SEQ ID NO:6) (human). The description is as above.

For the substance “Hsc70 in the soluble phase of the BIAcore assay”, the Kd was determined as 1.4 nM in assay [1], 2.4 nM in assay [2] and 7.4 nM in assay [3]. Further, the koff was found to be 0.0003 s⁻¹ in assay [4], 0.0005 s⁻¹ in assay [5] and 0.0017 s⁻¹ in assay [6]. Also, the kon stood at 210000 M⁻¹ s⁻¹ in assay [4], 210000 M⁻¹ s⁻¹ in assay [5] and 240000 M⁻¹ s⁻¹ in assay [6].
